# Where a chain is given by its changes, count along the chain named.
# B1: composite human antibody variant H1 (antibody, V domains shown)
# VH: EVQLVQSGAEVKKPGSSVKVSCKASGYTFTGYILSWVRQAPGQGLEWIGWVDPEYGSTDSAEKFKKRVTITADISTSTAYMELSSLRSEDTATYFCTRYYDGYYRRWFAYWGQGTLVTVSS
# VL: DIQMTQSPSSLSASVGDRVTITCLASEGISNNLAWYQQKPGKAPKLLIYGAHSLHDGVPDRFSGSGSGTDYTLKISRVEAEDVGVYYCQQGYKYPITFGGGTKVEIK
# notes: also called VH5VK3
# B2: composite human antibody variant H15 (antibody, V domains shown)
# VH: B1 VH with V20I, V68A, I70L, S77N, M81I
# VL: B1 VL with Y36H
# notes: also called VH2VK2
# B3: composite human antibody variant H5 (antibody, V domains shown)
# VH: B1 VH
# VL: B1 VL with Y36H
# notes: also called VH5VK2
# B4: composite human antibody variant H4 (antibody, V domains shown)
# VH: B1 VH
# VL: B1 VL with Y71F
# notes: also called VH5VK4
# B5: composite human antibody variant H6 (antibody, V domains shown)
# VH: B1 VH
# VL: B1 VL with Y36H, K45Q, R77G, V78M, E79Q, A80P, V83E
# notes: also called VH5VK1
# B6: composite human antibody variant H3 (antibody, V domains shown)
# VH: B1 VH with V68A
# VL: B1 VL with Y71F
# notes: also called VH4VK4
# B7: composite human antibody variant H10 (antibody, V domains shown)
# VH: B1 VH with V20I, V68A, I70L, M81I
# VL: B1 VL with Y71F
# notes: also called VH3VK4
# B8: composite human antibody variant H11 (antibody, V domains shown)
# VH: B1 VH with V20I, V68A, I70L, M81I
# VL: B1 VL
# notes: also called VH3VK3
# B9: composite human antibody variant H19 (antibody, V domains shown)
# VH: B1 VH with A9P, V20I, R38K, V68A, I70L, S77N, M81I, E82Q
# VL: B1 VL with Y36H, K45Q, R77G, V78M, E79Q, A80P, V83E
# notes: also called VH1VK1
# B10: composite human antibody variant H2 (antibody, V domains shown)
# VH: B1 VH with V20I, V68A, I70L, M81I
# VL: B1 VL with Y36H, K45Q, R77G, V78M, E79Q, A80P, V83E
# notes: also called VH3VK1
# B11: composite human antibody variant H13 (antibody, V domains shown)
# VH: B1 VH with V20I, V68A, I70L, S77N, M81I
# VL: B1 VL with Y71F
# notes: also called VH2VK4
# B12: composite human antibody variant H8 (antibody, V domains shown)
# VH: B1 VH with V68A
# VL: B1 VL with Y36H
# notes: also called VH4VK2
# Target: T1, human integrin β1 (human, UniProt P05556 21-798)
# T1 construct: whole, on cells; the antibodies are described as anti-human integrin β1; also called CD29; ITGB1
# Experiment: competition FACS on Jurkat cells; competitor murine OS2966 (0.1875 µg/ml)
# Description: Binding of composite human antibody variants (from Table 2) was assessed in a competition FACS assay with the OS2966 murine chimeric antibody (murine OS2966 Fab sliced to human Fc). In brief, a dilution series (three-fold) of chimeric or humanized antibodies starting from 25.0 μg/ml was premixed with a constant concentration of murine OS2966 (0.1875 μg/ml) in FACS buffer (1% BSA in 1×PBS pH 7.4) before mixing with 3×10⁵ Jurkat cells. […] After incubating on ice for 45 min, cells were washed, resuspended in 300 μl FACS buffer and analyzed on a Beckton Dickinson FACScalibur™. The geometric mean fluorescence intensity was plotted against antibody concentration (FIGS. 20-24).
row,relative IC50 (IC50 of test antibody / IC50 of chimeric antibody),Binder
1,0.88 ratio to chimeric antibody,B1
2,1.32 ratio to chimeric antibody,B2
3,0.85 ratio to chimeric antibody,B3
4,3.26 ratio to chimeric antibody,B4
5,1.24 ratio to chimeric antibody,B5
6,2.7 ratio to chimeric antibody,B6
7,2.76 ratio to chimeric antibody,B7
8,1.58 ratio to chimeric antibody,B8
9,1.13 ratio to chimeric antibody,B9
10,0.97 ratio to chimeric antibody,B10
11,2 ratio to chimeric antibody,B11
12,1.18 ratio to chimeric antibody,B12
